{"source": "paper PMC12012969", "key": {"[1]": {"target": "KslB, bacterial Pictet–Spenglerase from Kitasatospora setae (Kitasatospora setae)", "assay": "SEC"}, "[2]": {"target": "KslB, bacterial Pictet–Spenglerase from Kitasatospora setae (Kitasatospora setae)", "assay": "crystal structure"}}, "data": [{"substance": "KslB, bacterial Pictet–Spenglerase from Kitasatospora setae (enzyme)", "values": [{"measurement": "stoichiometry N", "setting": "[1]", "result": 2}, {"measurement": "stoichiometry N", "setting": "[2]", "result": 2}]}]}
